Data on three proteins can be found in publication PMC8669218 (Acta Pharmacologica Sinica, 2021).

B1: extracellular domain of human DPP4 (residues 39-766), K122D (domain or fragment)
chain: SRKTYTLTDYLKNTYRLKLYSLRWISDHEYLYKQENNILVFNAEYGNSSVFLENSTFDEFGHSINDYSISPDGQFILLEYNYVDQWRHSYTASYDIYDLNKRQLITEERIPNNTQWVTWSPVGHKLAYVWNNDIYVKIEPNLPSYRITWTGKEDIIYNGITDWVYEEEVFSAYSALWWSPNGTFLAYAQFNDTEVPLIEYSFYSDESLQYPKTVRVPYPKAGAVNPTVKFFVVNTDSLSSVTNATSIQITAPASMLIGDHYLCDVTWATQERISLQWLRRIQNYSVMDICDYDESSGRWNCLVARQHIEMSTTGWVGRFRPSEPHFTLDGNSFYKIISNEEGYRHICYFQIDKKDCTFITKGTWEVIGIEALTSDYLYYISNEYKGMPGGRNLYKIQLSDYTKVTCLSCELNPERCQYYSVSFSKEAKYYQLRCSGPGLPLYTLHSSVNDKGLRVLEDNSALDKMLQNVQMPSKKLDFIILNETKFWYQMILPPHFDKSKKYPLLLDVYAGPCSQKADTVFRLNWATYLASTENIIVASFDGRGSGYQGDKIMHAINRRLGTFEVEDQIEAARQFSKMGFVDNKRIAIWGWSYGGYVTSMVLGSGSGVFKCGIAVAPVSRWEYYDSVYTERYMGLPTPEDNLDHYRNSTVMSRAENFKQVEYLLIHGTADDNVHFQQSAQISKALVDVGVDFQAMWYTDEDHGIASSTAHQHIYTHMSHFIKQCFSLP
modifications: glycosylated (sites not given)
B2: extracellular domain of human DPP4 (residues 39-766), P257A (domain or fragment)
chain: SRKTYTLTDYLKNTYRLKLYSLRWISDHEYLYKQENNILVFNAEYGNSSVFLENSTFDEFGHSINDYSISPDGQFILLEYNYVKQWRHSYTASYDIYDLNKRQLITEERIPNNTQWVTWSPVGHKLAYVWNNDIYVKIEPNLPSYRITWTGKEDIIYNGITDWVYEEEVFSAYSALWWSPNGTFLAYAQFNDTEVPLIEYSFYSDESLQYPKTVRVPYAKAGAVNPTVKFFVVNTDSLSSVTNATSIQITAPASMLIGDHYLCDVTWATQERISLQWLRRIQNYSVMDICDYDESSGRWNCLVARQHIEMSTTGWVGRFRPSEPHFTLDGNSFYKIISNEEGYRHICYFQIDKKDCTFITKGTWEVIGIEALTSDYLYYISNEYKGMPGGRNLYKIQLSDYTKVTCLSCELNPERCQYYSVSFSKEAKYYQLRCSGPGLPLYTLHSSVNDKGLRVLEDNSALDKMLQNVQMPSKKLDFIILNETKFWYQMILPPHFDKSKKYPLLLDVYAGPCSQKADTVFRLNWATYLASTENIIVASFDGRGSGYQGDKIMHAINRRLGTFEVEDQIEAARQFSKMGFVDNKRIAIWGWSYGGYVTSMVLGSGSGVFKCGIAVAPVSRWEYYDSVYTERYMGLPTPEDNLDHYRNSTVMSRAENFKQVEYLLIHGTADDNVHFQQSAQISKALVDVGVDFQAMWYTDEDHGIASSTAHQHIYTHMSHFIKQCFSLP
modifications: glycosylated (sites not given)
B3: extracellular domain of human DPP4 (residues 39-766), D243A (domain or fragment)
chain: SRKTYTLTDYLKNTYRLKLYSLRWISDHEYLYKQENNILVFNAEYGNSSVFLENSTFDEFGHSINDYSISPDGQFILLEYNYVKQWRHSYTASYDIYDLNKRQLITEERIPNNTQWVTWSPVGHKLAYVWNNDIYVKIEPNLPSYRITWTGKEDIIYNGITDWVYEEEVFSAYSALWWSPNGTFLAYAQFNDTEVPLIEYSFYSAESLQYPKTVRVPYPKAGAVNPTVKFFVVNTDSLSSVTNATSIQITAPASMLIGDHYLCDVTWATQERISLQWLRRIQNYSVMDICDYDESSGRWNCLVARQHIEMSTTGWVGRFRPSEPHFTLDGNSFYKIISNEEGYRHICYFQIDKKDCTFITKGTWEVIGIEALTSDYLYYISNEYKGMPGGRNLYKIQLSDYTKVTCLSCELNPERCQYYSVSFSKEAKYYQLRCSGPGLPLYTLHSSVNDKGLRVLEDNSALDKMLQNVQMPSKKLDFIILNETKFWYQMILPPHFDKSKKYPLLLDVYAGPCSQKADTVFRLNWATYLASTENIIVASFDGRGSGYQGDKIMHAINRRLGTFEVEDQIEAARQFSKMGFVDNKRIAIWGWSYGGYVTSMVLGSGSGVFKCGIAVAPVSRWEYYDSVYTERYMGLPTPEDNLDHYRNSTVMSRAENFKQVEYLLIHGTADDNVHFQQSAQISKALVDVGVDFQAMWYTDEDHGIASSTAHQHIYTHMSHFIKQCFSLP
modifications: glycosylated (sites not given)

This data set deals with the molecule itself. The data set can be described thus: nonreducing SDS-PAGE.
On to B1, for which the binding result is listed as “binds”.

Consider B2, for which the binding result is “binds”.

For B3, the binding result was “binds”.
